Results on 6 molecules are retold here after paper PMC2879597 (Structure (London, England : 1993), 2010).

The term Kd denotes a measure of binding affinity in units of concentration. Lower therefore signals higher affinity.

The target of test [1] is T1, IL-22/sIL-22R1 binary complex (UniProt Q9GZX6 34-179; Q8N6P7 16-228).
T1 sequence (looked up) 1: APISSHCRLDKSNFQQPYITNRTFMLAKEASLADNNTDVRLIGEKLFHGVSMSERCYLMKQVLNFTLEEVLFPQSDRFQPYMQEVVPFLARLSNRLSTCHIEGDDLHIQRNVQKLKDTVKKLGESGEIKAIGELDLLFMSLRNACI
T1 sequence (looked up) 2: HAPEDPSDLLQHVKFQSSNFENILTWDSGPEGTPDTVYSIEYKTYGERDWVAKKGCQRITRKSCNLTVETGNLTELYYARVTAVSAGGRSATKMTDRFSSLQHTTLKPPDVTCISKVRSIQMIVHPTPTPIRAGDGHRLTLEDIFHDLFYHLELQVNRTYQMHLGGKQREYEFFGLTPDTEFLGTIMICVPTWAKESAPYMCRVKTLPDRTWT

Test [2] has as its target T1, IL-22/sIL-22R1 binary complex. Nature of the test: SPR.
Test [3] deals with T2, cmvIL-10/sIL-10R1 binary complex (cytomegalovirus (CMV) | , UniProt P17150 20-175; Q13651 22-235).
T2 sequence 1: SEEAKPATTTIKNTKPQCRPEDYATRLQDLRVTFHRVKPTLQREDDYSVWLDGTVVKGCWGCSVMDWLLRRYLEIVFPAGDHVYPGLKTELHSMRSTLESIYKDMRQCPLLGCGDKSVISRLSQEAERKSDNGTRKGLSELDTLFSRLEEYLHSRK
T2 sequence 2: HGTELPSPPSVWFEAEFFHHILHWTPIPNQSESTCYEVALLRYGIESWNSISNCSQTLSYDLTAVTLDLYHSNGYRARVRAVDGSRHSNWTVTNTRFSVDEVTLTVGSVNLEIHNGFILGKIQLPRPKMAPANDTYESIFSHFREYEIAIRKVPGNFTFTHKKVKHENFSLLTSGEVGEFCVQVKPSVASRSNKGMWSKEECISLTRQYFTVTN
Nature of the test: SPR. On the technique in general: In SPR one partner is held on a chip, and binding of the other changes the refractive index at the surface.

Test [4] deals with hIL-10/sIL-10R1 binary complex (human | , UniProt P22301 19-178; Q13651 22-235). In words: SPR.
Chain of hIL-10/sIL-10R1 binary complex (P22301 19-178, one chain of several): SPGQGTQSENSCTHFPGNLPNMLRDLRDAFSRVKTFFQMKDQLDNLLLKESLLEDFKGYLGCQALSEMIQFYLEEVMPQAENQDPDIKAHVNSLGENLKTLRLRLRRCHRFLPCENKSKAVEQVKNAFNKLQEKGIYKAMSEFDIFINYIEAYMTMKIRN

B1: sIL-10R2-NQ (soluble extracellular IL-10R2 chain with N49Q, N68Q, N102Q, N161Q) (receptor, human, UniProt Q08334 20-220, looked up)
chain: MVPPPENVRMNSVNFKNILQWESPAFAKGQLTFTAQYLSYRIFQDKCMQTTLTECDFSSLSKYGDHTLRVRAEFADEHSDWVQITFCPVDDTIIGPPGMQVEVLADSLHMRFLAPKIENEYETWTMKNVYNSWTYNVQYWKQGTDEKFQITPQYDFEVLRNLEPWTTYCVQVRGFLPDRNKAGEWSEPVCEQTTHDETVPS
In test [1], B1 displayed a Kd of 14 µM.

B2: sIL-10R2 Y59A (on sIL-10R2-NQ) (receptor, human, UniProt Q08334 20-220, looked up)
chain: MVPPPENVRMNSVNFKNILQWESPAFAKGQLTFTAQYLSARIFQDKCMQTTLTECDFSSLSKYGDHTLRVRAEFADEHSDWVQITFCPVDDTIIGPPGMQVEVLADSLHMRFLAPKIENEYETWTMKNVYNSWTYNVQYWKQGTDEKFQITPQYDFEVLRNLEPWTTYCVQVRGFLPDRNKAGEWSEPVCEQTTHDETVPS
Regarding B2, the “percent of wild-type binding (normalized RU)” value (“percent … (normalized RU)” below) in test [2], in test [3] and in test [4] was ~50 % of WT throughout.

B3: sIL-10R2 Y140A (on sIL-10R2-NQ) (receptor, human, UniProt Q08334 20-220, looked up)
chain: MVPPPENVRMNSVNFKNILQWESPAFAKGQLTFTAQYLSYRIFQDKCMQTTLTECDFSSLSKYGDHTLRVRAEFADEHSDWVQITFCPVDDTIIGPPGMQVEVLADSLHMRFLAPKIENEAETWTMKNVYNSWTYNVQYWKQGTDEKFQITPQYDFEVLRNLEPWTTYCVQVRGFLPDRNKAGEWSEPVCEQTTHDETVPS
On to B3, for which the “percent … (normalized RU)” value in test [3] and in test [4] was ~20 % of WT each time.

B4: sIL-10R2 Y173A (on sIL-10R2-NQ) (receptor, human, UniProt Q08334 20-220, looked up)
chain: MVPPPENVRMNSVNFKNILQWESPAFAKGQLTFTAQYLSYRIFQDKCMQTTLTECDFSSLSKYGDHTLRVRAEFADEHSDWVQITFCPVDDTIIGPPGMQVEVLADSLHMRFLAPKIENEYETWTMKNVYNSWTYNVQYWKQGTDEKFQITPQADFEVLRNLEPWTTYCVQVRGFLPDRNKAGEWSEPVCEQTTHDETVPS
For B4, the “percent … (normalized RU)” value in test [2] is 65 % of WT.

B5: glycosylated sIL-10R2 (receptor, human, UniProt Q08334 20-220, looked up)
chain: MVPPPENVRMNSVNFKNILQWESPAFAKGNLTFTAQYLSYRIFQDKCMNTTLTECDFSSLSKYGDHTLRVRAEFADEHSDWVNITFCPVDDTIIGPPGMQVEVLADSLHMRFLAPKIENEYETWTMKNVYNSWTYNVQYWKNGTDEKFQITPQYDFEVLRNLEPWTTYCVQVRGFLPDRNKAGEWSEPVCEQTTHDETVPS
modifications: N-linked glycosylation sites N49, N68, N102 and N161 (glycosylated)
As for B5, in test [1], the affinity, expressed as Kd, was 7 µM.

B6: sIL-10R2 Y56A (on sIL-10R2-NQ) (receptor, human, UniProt Q08334 20-220, looked up)
chain: MVPPPENVRMNSVNFKNILQWESPAFAKGQLTFTAQALSYRIFQDKCMQTTLTECDFSSLSKYGDHTLRVRAEFADEHSDWVQITFCPVDDTIIGPPGMQVEVLADSLHMRFLAPKIENEYETWTMKNVYNSWTYNVQYWKQGTDEKFQITPQYDFEVLRNLEPWTTYCVQVRGFLPDRNKAGEWSEPVCEQTTHDETVPS
As to B6, the “percent … (normalized RU)” value in test [3] and in test [4] was ~20 % of WT each time.
